Some targets named below: AHNAK1, Q09666; DLG2_3, Q15700; GORASP2, Q9H8Y8; GRIP2_3, Q9C0E4; GRIP2_5, Q9C0E4; HTRA2, O43464; Inadl_4, Q8NI35; TJP1_2, Q07157.
Common to all, as to test: holdup assay
Design in all cases: key: below the threshold = too weak to quantify, mostly under pKd 3.1 to 4

For another assay, the target named is T1, APBA1_1, Q02410.
T1 sequence (Q02410 651-752, limits assumed, looked up): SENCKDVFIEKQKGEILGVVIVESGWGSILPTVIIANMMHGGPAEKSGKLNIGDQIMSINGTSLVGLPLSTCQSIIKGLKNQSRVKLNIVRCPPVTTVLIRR

In a further assay the target is T2, CARD11, Q9BXL7.
T2 sequence (Q9BXL7 662-765, limits assumed, looked up): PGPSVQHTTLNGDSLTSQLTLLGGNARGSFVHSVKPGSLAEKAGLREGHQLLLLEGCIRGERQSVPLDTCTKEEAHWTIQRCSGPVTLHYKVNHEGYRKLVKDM

For the next assay, the target named is T3, DFNB31_2, Q9P202.
T3 sequence (Q9P202 274-371, limits assumed, looked up): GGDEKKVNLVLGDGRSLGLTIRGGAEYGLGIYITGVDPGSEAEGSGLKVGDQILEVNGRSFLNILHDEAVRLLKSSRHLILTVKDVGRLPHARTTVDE

A further assay deals with T4, GRIP1_2, Q9Y3R0.
T4 sequence (Q9Y3R0 145-248, limits assumed, looked up): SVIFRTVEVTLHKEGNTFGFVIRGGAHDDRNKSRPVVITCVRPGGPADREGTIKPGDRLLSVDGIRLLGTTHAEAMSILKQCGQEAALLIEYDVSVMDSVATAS

A further assay has as its target T5, GRIP1_3, Q9Y3R0.
T5 sequence (Q9Y3R0 247-346, limits assumed, looked up): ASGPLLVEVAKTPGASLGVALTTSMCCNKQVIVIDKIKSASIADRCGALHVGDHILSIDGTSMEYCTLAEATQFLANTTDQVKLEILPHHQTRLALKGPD

A further assay has as its target T6, GRIP1_5, Q9Y3R0.
T6 sequence (Q9Y3R0 568-668, limits assumed, looked up): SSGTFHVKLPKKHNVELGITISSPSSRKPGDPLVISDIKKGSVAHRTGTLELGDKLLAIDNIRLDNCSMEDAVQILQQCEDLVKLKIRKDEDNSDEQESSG

For a further assay, the target named is T7, LNX2_2, Q8N448.
T7 sequence (Q8N448 334-432, limits assumed, looked up): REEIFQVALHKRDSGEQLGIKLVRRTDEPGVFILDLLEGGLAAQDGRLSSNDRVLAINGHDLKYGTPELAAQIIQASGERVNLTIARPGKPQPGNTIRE

Another assay deals with T8, MPDZ_10, O75970.
T8 sequence (O75970 1624-1722, limits assumed, looked up): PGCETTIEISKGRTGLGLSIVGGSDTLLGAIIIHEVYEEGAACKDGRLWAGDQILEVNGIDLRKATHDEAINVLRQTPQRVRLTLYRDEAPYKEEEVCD

The target of another assay is T9, MPP6, Q9NZW5.
T9 sequence (Q9NZW5 125-219, limits assumed, looked up): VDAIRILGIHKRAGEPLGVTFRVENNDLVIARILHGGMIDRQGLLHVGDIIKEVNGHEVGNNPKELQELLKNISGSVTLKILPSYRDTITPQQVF

A further assay deals with T10, PTPN13_1, Q12923.
T10 sequence (Q12923 1088-1188, limits assumed, looked up): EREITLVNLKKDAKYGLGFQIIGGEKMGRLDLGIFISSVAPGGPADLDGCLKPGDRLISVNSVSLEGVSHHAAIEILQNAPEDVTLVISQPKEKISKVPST

In the next assay the target is T11, SIPA1L2, Q9P2F8.
T11 sequence (Q9P2F8 945-1036, limits assumed, looked up): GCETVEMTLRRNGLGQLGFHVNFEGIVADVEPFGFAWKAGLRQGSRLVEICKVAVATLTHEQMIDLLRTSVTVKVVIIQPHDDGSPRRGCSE

The target of the next assay is T12, SNTA1, Q13424.
T12 sequence (Q13424 82-180, limits assumed, looked up): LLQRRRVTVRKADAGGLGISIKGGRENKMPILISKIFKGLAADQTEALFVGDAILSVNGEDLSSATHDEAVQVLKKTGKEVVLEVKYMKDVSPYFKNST

For a further assay, the target named is T13, TJP3_3, O95049.
T13 sequence (O95049 375-456, limits assumed, looked up): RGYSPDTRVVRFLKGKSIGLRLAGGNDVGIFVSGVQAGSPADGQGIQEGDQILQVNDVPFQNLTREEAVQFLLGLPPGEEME

The target of a further assay is T14, TX1BP3, O14907.
T14 sequence (O14907 10-122, limits assumed, looked up): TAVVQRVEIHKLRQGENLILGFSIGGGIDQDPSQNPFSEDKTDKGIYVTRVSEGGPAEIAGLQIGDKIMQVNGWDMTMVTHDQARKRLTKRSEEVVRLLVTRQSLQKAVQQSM

Setting [1] is: plain residues with an end cap or a label only (N-terminal biotin on a linker: ado-ado).
Setting [2] is: plain residues with an end cap or a label only (N-terminal biotin on a linker: gsgsgs; C-terminal amide).
Where [3] appears, read: plain residues with an end cap or a label only (N-terminal biotin on a linker: ttds).

pKd data for four molecules are collected here from article PMC9482650, “Quantitative fragmentomics allow affinity mapping of interactomes” (Nature Communications, 2022).

As usually defined, the pKd is the Kd on a negative log10 scale, so that one unit is a factor of ten.

Chain of GRIP2_3, Q9C0E4 (Q9C0E4 238-339): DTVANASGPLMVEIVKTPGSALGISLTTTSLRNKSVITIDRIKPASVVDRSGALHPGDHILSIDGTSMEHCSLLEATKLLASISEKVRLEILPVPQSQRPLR
Chain of GRIP2_5, Q9C0E4 (Q9C0E4 544-642): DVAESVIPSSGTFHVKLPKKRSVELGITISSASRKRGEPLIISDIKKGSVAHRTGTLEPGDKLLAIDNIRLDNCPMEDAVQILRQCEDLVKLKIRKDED
Chain of AHNAK1, Q09666 (Q09666 4-100): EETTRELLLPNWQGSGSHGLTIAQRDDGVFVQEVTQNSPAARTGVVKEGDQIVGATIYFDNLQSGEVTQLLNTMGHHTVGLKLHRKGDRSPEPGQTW
Chain of Inadl_4, Q8NI35 (Q8NI35 547-651): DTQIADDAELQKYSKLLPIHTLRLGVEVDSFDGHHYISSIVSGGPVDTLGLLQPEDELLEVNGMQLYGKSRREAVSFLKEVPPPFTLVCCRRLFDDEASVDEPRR
Chain of TJP1_2, Q07157 (Q07157 181-274): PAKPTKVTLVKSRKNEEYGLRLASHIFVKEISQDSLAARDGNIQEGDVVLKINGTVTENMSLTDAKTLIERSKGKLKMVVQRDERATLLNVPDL
Chain of HTRA2, O43464 (O43464 355-458): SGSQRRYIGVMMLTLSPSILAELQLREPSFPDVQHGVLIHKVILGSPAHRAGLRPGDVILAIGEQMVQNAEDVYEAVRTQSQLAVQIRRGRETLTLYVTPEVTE

As for LHLHGTGIQV [EPHA7, Q15375], the pKd result with AHNAK1, Q09666 (setting [1]) is “below the threshold”; with APBA1_1, Q02410 (setting [1]), “below the threshold”; with CARD11, Q9BXL7 (setting [1]), “below the threshold”; with DFNB31_2, Q9P202 (setting [1]), “below the threshold”; with DLG2_3, Q15700 (setting [1]), “below the threshold”; with GORASP2, Q9H8Y8 (setting [1]) it was 4.46. The pKd result was “below the threshold” with GRIP1_2, Q9Y3R0 (setting [1]); “below the threshold” with GRIP1_3, Q9Y3R0 (setting [1]); “below the threshold” in the assay with GRIP1_5, Q9Y3R0 (setting [1]); “below the threshold” with GRIP2_3, Q9C0E4 (setting [1]); 3.55 with GRIP2_5, Q9C0E4 (setting [1]); “below the threshold” in the assay with HTRA2, O43464 (setting [1]). In addition, the pKd result with Inadl_4, Q8NI35 (setting [1]) was “below the threshold”; with LNX2_2, Q8N448 (setting [1]), 5.03; in the assay with MPDZ_10, O75970 (setting [1]) it was “below the threshold”; in the assay with MPP6, Q9NZW5 (setting [1]), 3.88; with PTPN13_1, Q12923 (setting [1]), “below the threshold”; in the assay with SIPA1L2, Q9P2F8 (setting [1]), “below the threshold”. Moreover, the negative logarithm of the Kd (pKd) entry with SNTA1, Q13424 (setting [1]) was “below the threshold”; with TJP1_2, Q07157 (setting [1]) it was 4.43; in the assay with TJP3_3, O95049 (setting [1]) it was “below the threshold”; in the assay with TX1BP3, O14907 (setting [1]) it was 4.12.
With ELIQDTSTSFSTTREW [ARAP3_int, Q8WWN8], the negative logarithm of the Kd (pKd) result in the assay with AHNAK1, Q09666 (setting [2]) is “below the threshold”; in the assay with APBA1_1, Q02410 (setting [2]) it was “below the threshold”; with CARD11, Q9BXL7 (setting [2]), “below the threshold”; with DFNB31_2, Q9P202 (setting [2]), “below the threshold”; in the assay with DLG2_3, Q15700 (setting [2]) it was 3.69; with GORASP2, Q9H8Y8 (setting [2]), “below the threshold”. Further, the pKd result was “below the threshold” in the assay with GRIP1_2, Q9Y3R0 (setting [2]); “below the threshold” in the assay with GRIP1_3, Q9Y3R0 (setting [2]); “below the threshold” with GRIP1_5, Q9Y3R0 (setting [2]); “below the threshold” with GRIP2_3, Q9C0E4 (setting [2]); “below the threshold” with GRIP2_5, Q9C0E4 (setting [2]); “below the threshold” with HTRA2, O43464 (setting [2]). Besides, the pKd entry with Inadl_4, Q8NI35 (setting [2]) was “below the threshold”; with LNX2_2, Q8N448 (setting [2]), “below the threshold”; with MPDZ_10, O75970 (setting [2]), “below the threshold”; with MPP6, Q9NZW5 (setting [2]) it was 3.69; with PTPN13_1, Q12923 (setting [2]), “below the threshold”; with SIPA1L2, Q9P2F8 (setting [2]) it was “below the threshold”. The pKd result with SNTA1, Q13424 (setting [2]) is “below the threshold”; with TJP1_2, Q07157 (setting [2]), “below the threshold”; with TJP3_3, O95049 (setting [2]), “below the threshold”; with TX1BP3, O14907 (setting [2]), 3.92.
For GGPKEEESPV [SLC16A1, P53985], the pKd result in the assay with AHNAK1, Q09666 (setting [3]) was “below the threshold”; with APBA1_1, Q02410 (setting [3]), “below the threshold”; with CARD11, Q9BXL7 (setting [3]), “below the threshold”; in the assay with DFNB31_2, Q9P202 (setting [3]) it was “below the threshold”; with DLG2_3, Q15700 (setting [3]), “below the threshold”; with GORASP2, Q9H8Y8 (setting [3]) it was “below the threshold”. Also, the negative logarithm of the Kd (pKd) entry with GRIP1_2, Q9Y3R0 (setting [3]) is reported as “below the threshold”; with GRIP1_3, Q9Y3R0 (setting [3]), “below the threshold”; with GRIP1_5, Q9Y3R0 (setting [3]) it was “below the threshold”; with GRIP2_3, Q9C0E4 (setting [3]), “below the threshold”; with GRIP2_5, Q9C0E4 (setting [3]), “below the threshold”; with HTRA2, O43464 (setting [3]) it was “below the threshold”. Also, the pKd result with Inadl_4, Q8NI35 (setting [3]) was “below the threshold”; in the assay with LNX2_2, Q8N448 (setting [3]), “below the threshold”; in the assay with MPDZ_10, O75970 (setting [3]) it was “below the threshold”; in the assay with MPP6, Q9NZW5 (setting [3]) it was “below the threshold”; in the assay with PTPN13_1, Q12923 (setting [3]), “below the threshold”; in the assay with SIPA1L2, Q9P2F8 (setting [3]) it was “below the threshold”. Also, the pKd entry with SNTA1, Q13424 (setting [3]) is “below the threshold”; in the assay with TJP1_2, Q07157 (setting [3]), “below the threshold”; with TJP3_3, O95049 (setting [3]), “below the threshold”; in the assay with TX1BP3, O14907 (setting [3]), “below the threshold”.
Take HRTCYLVTQL [ASIC3, Q9UHC3]: the pKd was 3.33 in the assay with AHNAK1, Q09666 (setting [3]); “below the threshold” with APBA1_1, Q02410 (setting [3]); “below the threshold” with CARD11, Q9BXL7 (setting [3]); “below the threshold” with DFNB31_2, Q9P202 (setting [3]); 4.17 with DLG2_3, Q15700 (setting [3]); 4.55 in the assay with GORASP2, Q9H8Y8 (setting [3]). Also, the negative-log Kd (pKd) result in the assay with GRIP1_2, Q9Y3R0 (setting [3]) is “below the threshold”; with GRIP1_3, Q9Y3R0 (setting [3]) it was “below the threshold”; with GRIP1_5, Q9Y3R0 (setting [3]), “below the threshold”; in the assay with GRIP2_3, Q9C0E4 (setting [3]) it was “below the threshold”; with GRIP2_5, Q9C0E4 (setting [3]), 4.31; with HTRA2, O43464 (setting [3]), 3.91. For the same molecule, the pKd result with Inadl_4, Q8NI35 (setting [3]) is “below the threshold”; with LNX2_2, Q8N448 (setting [3]) it was “below the threshold”; with MPDZ_10, O75970 (setting [3]), 3.91; with MPP6, Q9NZW5 (setting [3]), 3.45; in the assay with PTPN13_1, Q12923 (setting [3]), 3.36; with SIPA1L2, Q9P2F8 (setting [3]), “below the threshold”. For the same molecule, the pKd in the assay with SNTA1, Q13424 (setting [3]) was 3.88; in the assay with TJP1_2, Q07157 (setting [3]), “below the threshold”; in the assay with TJP3_3, O95049 (setting [3]), 3.43; with TX1BP3, O14907 (setting [3]), 5.08.
